This is an account of results in the supplement of paper PMC9170038.

The data set has as its system K4 kissing-loop RNA reporter. Description: apparent KD of K4 kissing-loop reporter; higher = weaker reporter binding. The note with it: Eterna round: R107. The procedure:
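RNA-MaP round R107: designed RNA switches with theophylline, tryptophan, arginine or FMN aptamers are transcribed on-chip within common flanks. They are titrated with a labelled K4 kissing-loop RNA reporter in RNA-MaP buffer (100 mM Tris pH 7.5, 80 mM KCl, 4 mM MgCl2), without ligand or with the indicated ligand. Median apparent KD per design.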

[1] abbreviates: input ligand: theophylline 20 uM.
[2] abbreviates: input ligand: tryptophan 2.4 mM.
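Further: bound reporter read as fluorescence of individual clusters on recovered sequencing chips by microscopy, with normalized cluster intensities fitted with a binding model.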

In the case of “UCCUGCAAUCUGCCACGAAAGUGGAUUGAUACCAGAGUCGAAAGACUCCCUUGGCAGCGAGUGAUGUUCGUAGCAGGUAAAUAAA [MatMod 6 - Jieux - Exclusion - Theophylline A]”, the “apparent KD of K4 kissing-loop reporter” value by setting is: (input ligand: FMN 200 uM) 203 nM; (input ligand: arginine 13.2 mM) 221 nM; (input ligand: none) 206 nM; under setting [1], 218 nM; under setting [2], 185 nM.

Consider “CCGGGCGGCCGAAGGAGCGGGCGGACCCGAGUGAUGUUCGGGUGGCCCGUGAGGGCCGGUGCCCAGGUAGGUCGCGGAUCCGCCC [#2 Same State - Arginine B Attempt #3 (HarryS)]”, for which the “apparent KD of K4 kissing-loop reporter” value runs as follows: (input ligand: FMN 200 uM) 155 nM; (input ligand: arginine 13.2 mM) 120 nM; (input ligand: none) 140 nM; under setting [1], 116 nM; under setting [2], 135 nM.

Regarding “AUAUCUAGAGUGAUGUUCUAGUAAGCUGAAGGAGCGGACGAAAGUCCAGGUAGGUCGCAGUGUUUUUACACCUCAUGUGUAGGAG [KL-SSArg-A7 #analogue]”, the “apparent KD of K4 kissing-loop reporter” value by setting is: (input ligand: FMN 200 uM) 118 nM; (input ligand: arginine 13.2 mM) 128 nM; (input ligand: none) 107 nM; under setting [1], 163 nM; under setting [2], 130 nM.

For the sequence “CCUAGUGAUGUUAGGUCGUGCUCCUAUGAUACCAGCGUAGUCACUCGCCCUUGGCAGCAUUCCUUAUAAGGCGGUCGGGCGCGGU [theeternabot_sameState_KL_Theo_A_34]”, the “apparent KD of K4 kissing-loop reporter” value runs as follows: (input ligand: FMN 200 uM) 218 nM; (input ligand: arginine 13.2 mM) 104 nM; (input ligand: none) 193 nM; under setting [1], 158 nM; under setting [2], 154 nM.

On to “AAUUUAUGAUCUGAUACCAGACUUUAUCUUGUUUAUAAGUCAAGUGAUGUUUGACUAUUAGUCCCUUGGCAGCAGUAUUGUUUAA [#17 K4 Theophylline B Same State]”, for which the “apparent KD of K4 kissing-loop reporter” value is, setting by setting: (input ligand: FMN 200 uM) 243 nM; (input ligand: arginine 13.2 mM) 268 nM; (input ligand: none) 290 nM; under setting [1], 208 nM; under setting [2], 239 nM.

On to “UCGAUGGUCAGCGAUACCAGCCCAGUGAUGUUGGGCACAUGGUUGCGGAAAAUCCCAUUGGGCCCUUGGCAGCGCUUGCAUGGGU [Titiquesan]”, for which the “apparent KD of K4 kissing-loop reporter” value is, setting by setting: (input ligand: FMN 200 uM) 130 nM; (input ligand: arginine 13.2 mM) 122 nM; (input ligand: none) 123 nM; under setting [1], 136 nM; under setting [2], 116 nM.

As for “UAAUGCAUGACGGCCGCCACUAGUACUGGAGUGAUGUUGUGGUACGGCGGCAGUAUAGGGUGGACUAGGACCGGGUCAUGCAUAU [KL-XTryp-B11 #analogue]”, the “apparent KD of K4 kissing-loop reporter” value (input ligand: FMN 200 uM) stood at 598 nM; the “apparent KD of K4 kissing-loop reporter” value (input ligand: arginine 13.2 mM) is 443 nM; the “apparent KD of K4 kissing-loop reporter” value (input ligand: none) was 597 nM; the “apparent KD of K4 kissing-loop reporter” value under setting [1] is 547 nM; the “apparent KD of K4 kissing-loop reporter” value under setting [2] turned out to be 567 nM.

Take “ACCAUCAAAGAUGGCCAGGACUCAACUGAUACCAGAGUGGAGACACUCCCUUGGCAGCAGGUGAGUGAUGUUCACGAGUCCUGGA [Omel KL Theo A SS B v9]”: the “apparent KD of K4 kissing-loop reporter” value (input ligand: FMN 200 uM) worked out at 1000 nM; the “apparent KD of K4 kissing-loop reporter” value (input ligand: arginine 13.2 mM) was 801 nM; the “apparent KD of K4 kissing-loop reporter” value (input ligand: none) is 1140 nM; the “apparent KD of K4 kissing-loop reporter” value under setting [1] amounted to 599 nM; the “apparent KD of K4 kissing-loop reporter” value under setting [2] stood at 740 nM.

For the sequence “UAGUCCUAGUGAUCCUUAUCAAGUGGUGGGCGAGGACCGGUACGGCCGCCACUCGAAUAUGCAGUGAUGUUGUAAUCCGGAUAAU [Exclusion - Tryptophan A (Freestyle 10)]”, the “apparent KD of K4 kissing-loop reporter” value (input ligand: FMN 200 uM) came out at 596 nM; the “apparent KD of K4 kissing-loop reporter” value (input ligand: arginine 13.2 mM) was determined as 511 nM; the “apparent KD of K4 kissing-loop reporter” value (input ligand: none) was found to be 727 nM; the “apparent KD of K4 kissing-loop reporter” value under setting [1] is 846 nM; the “apparent KD of K4 kissing-loop reporter” value under setting [2] was determined as 417 nM.

In the case of “AAUACCUGAGUGAUGUUCAGGGAAUCAGAAGGAGCGUCAAUUAUGACAGGUAGGUCGCUGAAGACAUGUGUGUAUACACAUGUCC [#04 K4 Arginine A Same State]”, the “apparent KD of K4 kissing-loop reporter” value was 259 nM (input ligand: FMN 200 uM); 198 nM (input ligand: arginine 13.2 mM); 234 nM (input ligand: none); 275 nM under setting [1]; 200 nM under setting [2].

Regarding “AAAUAAAGCAGUCAGCCAGUGAUGUUGGAAGGAGCGUGCGAAAGCACAGGUAGGUCGCCAAAACCUAAUACUGGCUGCUAAAUAA [#SwitchBubble 1 #K4Early]”, the “apparent KD of K4 kissing-loop reporter” value by setting is: (input ligand: FMN 200 uM) 979 nM; (input ligand: arginine 13.2 mM) 643 nM; (input ligand: none) 773 nM; under setting [1], 753 nM; under setting [2], 542 nM.

“GCUAGGCAUGCAGGAUAUCGUGGAGUGAUGUUCCGUUGGCUGCUAGCGGAAAACGCUAGCAGCCUACGAGAAGGGCAUGCCUAGC”: the “apparent KD of K4 kissing-loop reporter” value by setting is: (input ligand: FMN 200 uM) 192 nM; (input ligand: arginine 13.2 mM) 356 nM; (input ligand: none) 425 nM; under setting [1], 410 nM; under setting [2], 368 nM.

As for “GGACGACAGGCGGCCGCCACUCACAGCAGCCAGCGAGUGAUGUUCGUAGCGGAGUGAUGUUCCGAGAGGACCGGGUCUGCAGUCC [Same State Tryptophan B GF 17]”, the “apparent KD of K4 kissing-loop reporter” value is, setting by setting: (input ligand: FMN 200 uM) 246 nM; (input ligand: arginine 13.2 mM) 178 nM; (input ligand: none) 224 nM; under setting [1], 168 nM; under setting [2], 223 nM.

With “UUUAUUAAGACGGCCGCCACUGAAUUAGAGUGAUGUUCUAUAAUUUCUAAAUUAAAUUUAUUCAACAGGACCGGGUCAAUUAUUA [JR_SSTryptoB_Sub011]”, the “apparent KD of K4 kissing-loop reporter” value reads like this: (input ligand: FMN 200 uM) 384 nM; (input ligand: arginine 13.2 mM) 364 nM; (input ligand: none) 382 nM; under setting [1], 392 nM; under setting [2], 314 nM.

As for “GAGAUAGAGGCGGCCGCCACUAGUGAUGUUAGUGAUGUUAGAAAGAGAAUAGAACAGGGAUUUGAUAGGACCGGGCCAGAUGGAG [wwemullin]”, the “apparent KD of K4 kissing-loop reporter” value (input ligand: FMN 200 uM) worked out at 57.6 nM; the “apparent KD of K4 kissing-loop reporter” value (input ligand: arginine 13.2 mM) came out at 51.3 nM; the “apparent KD of K4 kissing-loop reporter” value (input ligand: none) amounted to 48.9 nM; the “apparent KD of K4 kissing-loop reporter” value under setting [1] stood at 48.7 nM; the “apparent KD of K4 kissing-loop reporter” value under setting [2] was determined as 63 nM.

On to “AUUCUGUUUUUAAUGUUUAUUGUAUAAUGGCAGGAUAUCGUAGAAGCGAGAAGGGCUUUUAUGCGUUAUGAGUGAUGUUUGUAGG [dhhyfvmullin]”, for which the “apparent KD of K4 kissing-loop reporter” value stood at 364 nM (input ligand: FMN 200 uM); 247 nM (input ligand: arginine 13.2 mM); 267 nM (input ligand: none); 410 nM under setting [1]; 270 nM under setting [2].

Turning to “UGAUUGCCAGUGAUGUUGGCAGGGUCUGAAGGAGCGCGUGAAAACGCAGGUAGGUCGCAGUAUGGUGCCAAUUGAUCGAAAGAUC [KL-XArg-A3]”, the “apparent KD of K4 kissing-loop reporter” value runs as follows: (input ligand: FMN 200 uM) 226 nM; (input ligand: arginine 13.2 mM) 186 nM; (input ligand: none) 223 nM; under setting [1], 210 nM; under setting [2], 170 nM.

In the case of “GACGGGCAGUGAUGUUGCCGGUCUCUUGGACGAGGACCGGUACGGCCGCCACUCGAUCUGAUGCAAGAAUCGCAUCUUUUAAUAA [Biququan]”, the “apparent KD of K4 kissing-loop reporter” value is, setting by setting: (input ligand: FMN 200 uM) 151 nM; (input ligand: arginine 13.2 mM) 103 nM; (input ligand: none) 166 nM; under setting [1], 312 nM; under setting [2], 273 nM.

Take “CUUCUCCUUCCAAUCUCGGCCAACACGGGACGAGGACCGGUACGGCCGCCACUCGUGCAGUGAUGUUGCACGAUGGUGACGGAGA [Queronmaan]”: the “apparent KD of K4 kissing-loop reporter” value was 95.7 nM (input ligand: FMN 200 uM); 87.6 nM (input ligand: arginine 13.2 mM); 94.2 nM (input ligand: none); 86.9 nM under setting [1]; 217 nM under setting [2].

Regarding “AAGAGUUGACGAAAAGUCAACUCACGAGAAGGAGCGCACGAAAGUGCAGGUAGGUCGCUCAGUCCAGUGAUGUUGGAACAUAAAA [#OpenEnded 7]”, the “apparent KD of K4 kissing-loop reporter” value is, setting by setting: (input ligand: FMN 200 uM) 66.2 nM; (input ligand: arginine 13.2 mM) 114 nM; (input ligand: none) 96.1 nM; under setting [1], 110 nM; under setting [2], 73.3 nM.

As for “CAUGGAGUGAUGCUCCAUGGUCGGGCUUGGCAGGAUAUGGGAUCUUCCAGAAGGGCCGAUCCCGGCGAGUGAUGUUCGCUGGUCU [Exclusion FMN A GF 28]”, the “apparent KD of K4 kissing-loop reporter” value is 167 nM (input ligand: FMN 200 uM); 332 nM (input ligand: arginine 13.2 mM); 316 nM (input ligand: none); 433 nM under setting [1]; 271 nM under setting [2].
